Assay results from paper PMC7010297, “How the initiating ribosome copes with ppGpp to translate mRNAs” (PLoS Biology, 2020).
“And” between values parts separate entries of the source, which are not always exact repeats. Identical values can stand only once. Like-named read-outs stand apart in the source and are kept apart here.

Experiments:
30S subunit (30S IC) = test: 30S IC formation by MST, mRNA titration; format: binding, Escherichia coli; details: for MST Average / MST Replicates (a.u.): Fig 3B; for Kd: Fig 3C, from mRNA titration of 30S IC formation; for 30S IC formation MST signal, Average / 30S IC formation MST signal, replicates: Fig 6D
Source text: Fig 1 Bacterial stringent response and experimental approach. (A) Schematics representing the onset of stringent response, (p)ppGpp accumulation, and gene expression regulation. Translation of stress-related mRNAs upon (p)ppGpp accumulating is the focus of the investigation (indicated as the red question mark). (B) Schematics of instrumentation for measuring 30S initiation complex (IC) by fluorescence Microscale Thermophoresis (MST) (provided by Nanotemper Technologies). […] Fluorophore excitation and measurement of the emitted fluorescence, together with IR-mediated perturbation of the equilibrium, are achieved through an objective and dichroic mirror. (C) Time courses of fluorescence showing the equilibrium relaxation upon thermal perturbation at varying ligand concentrations. Blue vertical lines indicate the fluorescence signal readout prior to the equilibrium perturbation (Fi), while vertical red lines indicate the fluorescence signal upon reaching the new equilibrium (Ff). Colored traces represent different concentrations of the titrating mRNA (0.1 to 4 μM). The ratio between the Ff over Fi times 1,000 is the normalized thermophoresis shift (MST). The dependency of MST shift on ligand concentration allows to estimate KD constants of the interaction using a hyperbolic or quadratic function and nonlinear regression fitting. MST measurements (closed circles) are indicated in the same colors as their respective time traces in (C). (D) Formation of 30S IC measured by MST. Time traces of thermophoresis (S1 Fig) were used to calculate MST values for all four combinations of mRNA start codons and labeled tRNAs for dependencies on mRNA concentration. […] Closed symbols indicate that Bpy-Met-tRNA^fMet was used, while open symbols correspond to Bpy-Phe-tRNA^Phe. Continuous lines indicate nonlinear regression fittings. Three to four measurements were performed; mean and error bars representing standard deviations are plotted (S1 Data).
To monitor the interaction of initiator tRNA and 30S ribosomal subunits, we used Microscale Thermophoresis (MST) with a fluorescently labelled initiator tRNA (Bpy-tRNAi) (Fig 1B). MST allows to measure fluorescence in a constrained space. Changes on the readout derive from molecular drifts resulting from small thermal equilibrium perturbations. Upon equilibrium perturbations, the patterns of Bpy-tRNAi migration away from the observation space are related to bound and unbound states (Fig 1B). […] On the contrary, a decrease in thermophoresis indicated the dissociation of Bpy-tRNAi. The relation between fluorescence measured at both equilibriums (Ff to Fi, after and prior to the perturbation, respectively) as a function of ligand concentration allowed to determine dissociation constants of the interaction (Fig 1C).
By observing the bound state of Bpy-tRNAi to the 30S subunit, MST could be measuring either IC, 30S pre-IC, or 30S IC, as they are identical in terms of ligand composition. […] To unambiguously assign which step is monitored by MST, we used different combinations of start codons and fluorescent tRNAs.
MST was calculated from the respective fluorescence time dependencies (S3 Fig). […] Symbols as in (B). […] Continuous lines indicate nonlinear regression fittings with quadratic (B and E) or same-site competition (G) functions. Three measurements were performed; mean and standard deviations are plotted (S1 Data).

[1] = tested on: mRNA translation (protein synthesis); test: In vitro translation in pure cell-free system (PURExpress, Lumio labelling); format: biochemical
Protocol: Fig 5 Permissive ppGpp-mediated inhibition of mRNA translation. (A) Scheme of the translating 70S complex. (B) In vitro translation of mTufA and mInfA derivatives harboring a coding sequence for the Lumio labelling system (Experimental conditions and analysis). […] Synthetized proteins were fluorescently labelled and resolved by 20% SDS-PAGE. The resulting images were analyzed by pixel densitometry using ImageJ [37] to estimate translation efficiencies (TEs). […] (D) Comparison of inhibitory constants for both mRNAs as measured during 30S IC formation (white) or overall translation efficiency (gray). Mean and standard deviations from three measurements are plotted (S1 Data). GTP, guanosine triphosphate; mInfA, InfA mRNA; mTufA, TufA mRNA; TE, translation efficiency.
In order to visualize overall protein synthesis, we used a coupled transcription-translation cell-free system. Reactions were carried out in 10 μL of the purified components from the PURExpress In Vitro Protein Synthesis Kit (E6800S/L, NEB, Ipswich, Massachusetts) with the corresponding templates. These reactions were incubated at 37°C for 2 hours. […] After incubation, sample processing and fluorescent labelling were carried out as described by the Lumio Green Detection Kit (LC6090, ThermoScientific, Waltham, Massachusetts) for in vitro reactions. Finally, 20 μL of labelled samples were loaded into 20% SDS-PAGE gels and visualized under a Blue-light LED transilluminator with orange filter (Cleaver Scientific LTD, Warwickshire, UK). Gel quantification was performed by pixel densitometry analysis using ImageJ software.

[2] = Fig 3D, efficiency of 30S IC formation

B1: mTufA: TufA mRNA with full-length 5′ UTR, in vitro transcribed, codes for EF-Tu (nucleic acid)
chain: GGUUCUAUCGCCUUUAAAGAAGGCUUUAAGAAAGCGAAACCAGUUCUGCUUGAGCCGAUCAUGAAGGUUGAAGUAGAAACUCCGGAAGAGAACACCGGUGACGUUAUCGGUGACUUGAGCCGUCGUCGUGGUAUGCUCAAAGGUCAGGAAUCUGAAGUUACUGGCGUUAAGAUCCACGCUGAAGUACCGCUGUCUGAAAUGUUCGGAUACGCAACUCAGCUGCGUUCUCUGACCAAAGGUCGUGCAUCAUACACUAUGGAAUUCCUGAAGUAUGAUGAAGCGCCGAGUAACGUUGCUCAGGCCGUAAUUGAAGCCCGUGGUAAAUAAGCCUAAGGGUUAAUACCAAAGUCCCGUGCUCUCUCCUGAAGGGGAGAGCACUAUAGUAAGGAAUAUAGCCGUGUCUAAAGAAAAAUUUGAACG
30S subunit (30S IC); mRNA 0.004 μM
  MST Average: 969.58 a.u.
  MST Replicates (a.u.): 968.54 a.u. and 970.25 a.u. and 969.97 a.u.
30S subunit (30S IC); mRNA 0.008 μM
  MST Average: 969.59 a.u.
  MST Replicates (a.u.): 969.28 a.u. and 969.63 a.u. and 969.86 a.u.
30S subunit (30S IC); mRNA 0.016 μM
  MST Average: 972.78 a.u.
  MST Replicates (a.u.): 971.79 a.u. and 972.82 a.u. and 973.72 a.u.
30S subunit (30S IC); mRNA 0.03 μM
  MST Average: 974.49 a.u.
  MST Replicates (a.u.): 974.10 a.u. and 974.12 a.u. and 975.24 a.u.
30S subunit (30S IC); mRNA 0.06 μM
  MST Average: 982.70 a.u.
  MST Replicates (a.u.): 982.27 a.u. and 982.61 a.u. and 983.22 a.u.
30S subunit (30S IC); mRNA 0.13 μM
  MST Average: 997.76 a.u.
  MST Replicates (a.u.): 996.79 a.u. and 997.90 a.u. and 998.61 a.u.
30S subunit (30S IC); mRNA 0.25 μM
  MST Average: 1022.60 a.u.
  MST Replicates (a.u.): 1021.41 a.u. and 1022.36 a.u. and 1024.04 a.u.
30S subunit (30S IC); mRNA 0.50 μM
  MST Average: 1057.58 a.u.
  MST Replicates (a.u.): 1056.44 a.u. and 1057.96 a.u. and 1058.33 a.u.
30S subunit (30S IC); mRNA 1.00 μM
  MST Average: 1095.54 a.u.
  MST Replicates (a.u.): 1094.17 a.u. and 1095.62 a.u. and 1096.83 a.u.
30S subunit (30S IC); mRNA 2.00 μM
  MST Average: 1113.87 a.u.
  MST Replicates (a.u.): 1113.37 a.u. and 1113.82 a.u. and 1114.42 a.u.
30S subunit (30S IC); read-out: Kd (μM) of the mRNA, Average
  Kd: 0.19 µM
30S subunit (30S IC); read-out: Kd (μM) of the mRNA, single replicate
  Kd: 0.19 µM and 0.18 µM
30S subunit (30S IC); [2]
  MST Amplitude (a.u.), Average: 165.04 a.u.
  MST Amplitude (a.u.), single replicate: 165.44 a.u. and 164.97 a.u. and 164.70 a.u.
30S subunit (30S IC); mRNA 0.001 µM
  30S IC formation MST signal, Average: 934.16
  30S IC formation MST signal, replicates: 933.97 and 934.33 and 934.18
30S subunit (30S IC); mRNA 0.002 µM
  30S IC formation MST signal, Average: 931.08
  30S IC formation MST signal, replicates: 929.08 and 931.16 and 933.00
30S subunit (30S IC); mRNA 0.004 µM
  30S IC formation MST signal, Average: 929.10
  30S IC formation MST signal, replicates: 927.65 and 929.57 and 930.10
30S subunit (30S IC); mRNA 0.008 µM
  30S IC formation MST signal, Average: 927.54
  30S IC formation MST signal, replicates: 923.84 and 929.70 and 929.07
30S subunit (30S IC); mRNA 0.016 µM
  30S IC formation MST signal, Average: 926.63
  30S IC formation MST signal, replicates: 924.56 and 926.45 and 928.88
30S subunit (30S IC); mRNA 0.031 µM
  30S IC formation MST signal, Average: 928.44
  30S IC formation MST signal, replicates: 928.15 and 928.36 and 928.82
30S subunit (30S IC); mRNA 0.062 µM
  30S IC formation MST signal, Average: 934.74
  30S IC formation MST signal, replicates: 934.59 and 934.05 and 935.59
30S subunit (30S IC); mRNA 0.125 µM
  30S IC formation MST signal, Average: 947.53
  30S IC formation MST signal, replicates: 949.07 and 946.54 and 946.98
30S subunit (30S IC); mRNA 0.25 µM
  30S IC formation MST signal, Average: 962.80
  30S IC formation MST signal, replicates: 964.74 and 961.64 and 962.03
30S subunit (30S IC); mRNA 0.5 µM
  30S IC formation MST signal, Average: 989.99
  30S IC formation MST signal, replicates: 993.30 and 987.37 and 989.30
30S subunit (30S IC); mRNA 1 µM
  30S IC formation MST signal, Average: 1011.86
  30S IC formation MST signal, replicates: 1011.95 and 1011.22 and 1012.39
30S subunit (30S IC); mRNA 2 µM
  30S IC formation MST signal, Average: 1036.12
  30S IC formation MST signal, replicates: 1039.43 and 1034.52 and 1034.41
[1]; 2 mM ppGpp, Fig 6G
  Translation Avg: 0.27 a.u.
[1]; No ppGpp, Fig 6G
  Translation Avg: 0.83 a.u.
  Translation Replicate: 0.83 a.u.
[1]; in the absence of ppGpp
  translation higher than mInfA: 3 fold
